Biological target: VEGF-165 (UniProt P15692-4 27-191)
Assay: magnetic bead capture with fluorescent complementary probe (fluorescence rebound); 50 uM KCl, 1 mM Mg2+, pH 7.0; linear 0.2-2.0 ng/mL VEGF in plasma, LOD 0.0445 ng/mL; 1X TBSE: 10 mM Tris, 0.05 mM EDTA, 100 mM NaCl, 1 mM MgCl2, 50 uM KCl, pH 7.0; 0.1 uM aptamer (95 C 3 min, cooled), 25 C, 45 min
Details: protein: commercial; chain copies: 2; label: 5'-biotin; G-quadruplex

Chain of VEGF-165 (P15692 other isoform, or with tags, fused parts or gaps): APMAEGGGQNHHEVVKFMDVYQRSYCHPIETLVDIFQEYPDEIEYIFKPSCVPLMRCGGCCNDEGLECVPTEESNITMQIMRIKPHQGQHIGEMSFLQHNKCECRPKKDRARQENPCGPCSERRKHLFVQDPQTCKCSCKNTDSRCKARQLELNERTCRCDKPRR

**Q.** Does TGTGGGGGTGGACGGGCCGGGTAGA (structured_DNA) [VEGF aptamer (APT)] bind?
**A.** Result: binds
